The results in this text go back to publication PMC4218952.

For this assay, the target named is Myc-GluK2a (UniProt Q13002). The experiment in a line: co-IP; HEK293T cells transfected with FLAG-parkin and Myc-GluK2a or its truncation mutants; 500 ug lysate, Myc, parkin or FLAG antibody overnight at 4 C, Protein A or G agarose, washes with 500 mM NaCl, 1% Triton X-100; also after activation with 10 mM glutamate.
UniProt Q13002, sequence (Q13002 32-908): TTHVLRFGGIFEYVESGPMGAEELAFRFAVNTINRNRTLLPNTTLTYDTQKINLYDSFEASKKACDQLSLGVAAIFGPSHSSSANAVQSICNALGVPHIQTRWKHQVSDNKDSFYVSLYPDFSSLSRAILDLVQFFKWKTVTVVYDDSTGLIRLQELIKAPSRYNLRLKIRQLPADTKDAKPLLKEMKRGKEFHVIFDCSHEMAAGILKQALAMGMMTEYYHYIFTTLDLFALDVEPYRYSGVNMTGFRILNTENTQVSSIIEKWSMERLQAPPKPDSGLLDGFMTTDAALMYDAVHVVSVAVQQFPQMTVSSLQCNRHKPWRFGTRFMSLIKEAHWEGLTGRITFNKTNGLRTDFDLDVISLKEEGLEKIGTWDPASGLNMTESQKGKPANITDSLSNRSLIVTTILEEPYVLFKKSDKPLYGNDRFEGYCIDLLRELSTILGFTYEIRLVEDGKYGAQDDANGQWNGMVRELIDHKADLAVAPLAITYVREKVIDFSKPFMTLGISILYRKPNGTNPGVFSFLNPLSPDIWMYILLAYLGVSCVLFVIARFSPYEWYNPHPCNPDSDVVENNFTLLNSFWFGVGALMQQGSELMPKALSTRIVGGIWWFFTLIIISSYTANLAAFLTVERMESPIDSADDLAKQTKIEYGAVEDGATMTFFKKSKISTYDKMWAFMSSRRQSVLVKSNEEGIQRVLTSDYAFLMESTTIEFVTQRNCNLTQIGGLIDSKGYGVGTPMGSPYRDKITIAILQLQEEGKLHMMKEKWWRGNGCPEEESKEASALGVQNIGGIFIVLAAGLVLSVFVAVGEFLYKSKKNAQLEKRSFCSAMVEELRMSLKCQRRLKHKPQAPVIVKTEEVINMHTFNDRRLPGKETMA

FLAG-parkin, sequence (O60260 whole entry, the tested form may be a part): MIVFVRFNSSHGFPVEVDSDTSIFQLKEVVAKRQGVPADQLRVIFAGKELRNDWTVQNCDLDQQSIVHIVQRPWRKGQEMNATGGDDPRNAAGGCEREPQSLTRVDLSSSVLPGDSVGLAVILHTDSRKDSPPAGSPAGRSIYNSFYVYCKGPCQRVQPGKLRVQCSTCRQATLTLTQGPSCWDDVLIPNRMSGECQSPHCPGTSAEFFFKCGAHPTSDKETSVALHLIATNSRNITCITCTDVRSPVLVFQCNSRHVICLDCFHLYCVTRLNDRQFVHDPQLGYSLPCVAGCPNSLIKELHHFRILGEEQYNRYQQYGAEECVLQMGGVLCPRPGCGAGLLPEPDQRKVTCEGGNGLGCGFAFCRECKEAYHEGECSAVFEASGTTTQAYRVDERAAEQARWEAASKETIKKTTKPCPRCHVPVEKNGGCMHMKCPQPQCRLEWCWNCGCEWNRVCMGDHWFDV

“FLAG-parkin (from UniProt O60260 1-465) (enzyme)” registered a co-immunoprecipitation after 10 mM glutamate, relative to untreated (fold of untreated) of 2.7.
